Reference: patent US20080293922A1 (POSCO, published 2008)

Target: T1, neuropilin-1 on MDA-MB-231 tumor cells (UniProt O14786 22-923, limits assumed)
T1 construct: whole, on cells
Assay: Binding of VEGF to MDA-MB-231 cells with or without Aβ peptides (data not shown)

B1: Vascular endothelial growth factor VEGF165 (ligand)
chain: APMAEGGGQNHHEVVKFMDVYQRSYCHPIETLVDIFQEYPDEIEYIFKPSCVPLMRCGGCCNDEGLECVPTEESNITMQIMRIKPHQGQHIGEMSFLQHNKCECRPKKDRARQENPCGPCSERRKHLFVQDPQTCKCSCKNTDSRCKARQLELNERTCRCDKPRR
modifications: 125I label in the radioligand, co-aggregation, dissociation and trapping assays (position not given)
notes: 125I-VEGF was bought from Amersham; also called 125I-VEGF; 125I-VEGF165
- binding result: binds
